Data taken from patent US20210292396A1 (INTERNATIONAL AIDS VACCINE INITIATIVE, published 2021).

Columns and labels:
Test in all cases: cell-based or functional assay
[1] = target: HIV Env of isolate 231965.c01 (HIV)
[2] = target: HIV Env of isolate CAAN5342.A2 (HIV)
[3] = target: HIV Env of isolate RHPA4259.7 (HIV)
[4] = target: HIV Env of isolate 3817.v2.c59 (HIV)
HIV Env of isolate CNE53 = HIV Env of isolate CNE53 (HIV)
[5] = target: HIV Env of isolate 6811.v7.c18 (HIV)
[6] = target: HIV Env of isolate Ce1172_H1 (HIV)
[7] = target: HIV Env of isolate WEAU_d15_410_5017 (HIV)
[8] = target: HIV Env of isolate X2088_c9 (HIV)
[9] = target: HIV Env of isolate TRO.11 (HIV)
HIV Env of isolate 263-8 = HIV Env of isolate 263-8 (HIV)
[10] = target: HIV Env of isolate Ce1176_A3 (HIV)
[11] = target: HIV Env of isolate 1006_11_C3_1601 (HIV)
[12] = target: HIV Env of isolate 62357_14_D3_4589 (HIV)
[13] = target: HIV Env of isolate T251-18 (HIV)
[14] = target: HIV Env of isolate 6240_08_TA5_4622 (HIV)
[15] = target: HIV Env of isolate REJO4541.67 (HIV)
[16] = target: HIV Env of isolate BJOX028000.10.3 (HIV)
[17] = target: HIV Env of isolate 246F_C1G (HIV)
[18] = target: HIV Env of isolate 6244_13_B5_4576 (HIV)
[19] = target: HIV Env of isolate ZM135M.PL10a (HIV)
[20] = target: HIV Env of isolate 6535.3 (HIV)
[21] = target: HIV Env of isolate HIV-001428-2.42 (HIV)
[22] = target: HIV Env of isolate 0815.v3.c3 (HIV)
[23] = target: HIV Env of isolate SC05_8C11_2344 (HIV)
[24] = target: HIV Env of isolate C3347.c11 (HIV)
[25] = target: HIV Env of isolate ZM247v1(Rev-) (HIV)
HIV Env of isolate CNE21 = HIV Env of isolate CNE21 (HIV)
[26] = target: HIV Env of isolate X2131_C1_B5 (HIV)
[27] = target: HIV Env of isolate C1080.c03 (HIV)
[28] = target: HIV Env of isolate Q769.d22 (HIV)
[29] = target: HIV Env of isolate 0330.v4.c3 (HIV)
[30] = target: HIV Env of isolate ZM109F.PB4 (HIV)
[31] = target: HIV Env of isolate 89-F1_2_25 (HIV)
[32] = target: HIV Env of isolate R1166.c01 (HIV)
HIV Env of isolate CNE20 = HIV Env of isolate CNE20 (HIV)
[33] = target: HIV Env of isolate 231965.c01 (HIV); remark: listed apart in the source
[34] = target: HIV Env of isolate HIV-0013095-2.11 (HIV)
[35] = target: HIV Env of isolate Ce2060_G9 (HIV)
[36] = target: HIV Env of isolate ZM249M.PL1 (HIV)
[37] = target: HIV Env of isolate 6540.v4.c1 (HIV)
[38] = target: HIV Env of isolate BJOX028000.10.3 (HIV); remark: listed apart in the source
[39] = target: HIV Env of isolate HIV-16055-2.3 (HIV)
[40] = target: HIV Env of isolate T278-50 (HIV)
[41] = target: HIV Env of isolate 6041.v3.c23 (HIV)

B1: PGT-121 (antibody, V domains shown)
VH: QMQLQESGPGLVKPSETLSLTCSVSGASISDSYWSWIRRSPGKGLEWIGYVHKSGDTNYSPSLKSRVNLSLDTSKNQVSLSLVAATAADSGKYYCARTLHGRRIYGIVAFNEWFTYFYMDVWGNGTQVTVSS
VL: SDISVAPGETARISCGEKSLGSRAVQWYQHRAGQAPSLIIYNNQDRPSGIPERFSGSPDSPFGTTATLTITSVEAGDEADYYCHIWDSRVPTKWVFGGGTTLTVLG
With B1 the “neutralization IC50” value [1] was > 50000 ng/mL, the “neutralization IC50” value [2] was 7 ng/mL and the “neutralization IC50” value [3] was 15 ng/mL. The “neutralization IC50” value [4] was 18900 ng/mL, the “neutralization IC50” value (HIV Env of isolate CNE53) was 7 ng/mL and the “neutralization IC50” value [5] was 1 ng/mL. The “neutralization IC50” value [6] was 11 ng/mL, the “neutralization IC50” value [7] was 26 ng/mL and the “neutralization IC50” value [8] was 3 ng/mL. The “neutralization IC50” value [9] was 5 ng/mL, the “neutralization IC50” value (HIV Env of isolate 263-8) was 648 ng/mL and the “neutralization IC50” value [10] was 13 ng/mL. For the same binder, the “neutralization IC50” value [11] was 2 ng/mL, the “neutralization IC50” value [12] was 2600 ng/mL and the “neutralization IC50” value [13] was 29000 ng/mL. The “neutralization IC50” value [14] was 33 ng/mL, the “neutralization IC50” value [15] was 4770 ng/mL and the “neutralization IC50” value [16] was > 50000 ng/mL. The “neutralization IC50” value [17] was 41 ng/mL, the “neutralization IC50” value [18] was 61 ng/mL and the “neutralization IC50” value [19] was 716 ng/mL. The “neutralization IC50” value [20] was 2 ng/mL, the “neutralization IC50” value [21] was 14 ng/mL and the “neutralization IC50” value [22] was 25 ng/mL. For the same binder, the “neutralization IC50” value [23] was 19 ng/mL, the “neutralization IC50” value [24] was > 50000 ng/mL and the “neutralization IC50” value [25] was 28 ng/mL. For the same binder, the “neutralization IC50” value (HIV Env of isolate CNE21) was 7 ng/mL, the “neutralization IC50” value [26] was 4 ng/mL and the “neutralization IC50” value [27] was > 50000 ng/mL. For the same binder, the “neutralization IC50” value [28] was > 50000 ng/mL, the “neutralization IC50” value [29] was 50 ng/mL and the “neutralization IC50” value [30] was 8640 ng/mL. For the same binder, the “neutralization IC50” value [31] was > 50000 ng/mL, the “neutralization IC50” value [32] was > 50000 ng/mL and the “neutralization IC50” value (HIV Env of isolate CNE20) was 1 ng/mL.

B2: ePGT121.15.H1.L1 (antibody, V domains shown)
VH: QMQLQESGPGLVKPGETLSLTCSVSGASISSSYWSWLRETPGKGLEWIGYTHHSGDTNYAPSLKSRVHLGLHPSKNQVSLSLTSVTAADTAVYYCARTLHGRRIYGVVAFNEWFTYFYWEVWGNGTQVTVSS
VL: SDISVAPGETVRISCGGESIGSRAVQWYQHRAGQAPKLIIYNNQDRPPGIPERFSGSPDIDFGTTATLTITNVEAGDEATYYCHIWDSRRPTNWVFGGGTTLTVL
B2 was tested, and the “neutralization (Table 6 value)” value [33] was 0.68, the “neutralization (Table 6 value)” value [34] was 1.07 and the “neutralization (Table 6 value)” value [35] was 0.0102. The “neutralization (Table 6 value)” value [36] was 0.00404, the “neutralization (Table 6 value)” value [37] was 0.249 and the “neutralization (Table 6 value)” value [38] was 0.0278. For the same binder, the “neutralization (Table 6 value)” value [39] was 1.07, the “neutralization (Table 6 value)” value [40] was 0.0232 and the “neutralization (Table 6 value)” value [41] was 0.396. The “neutralization IC50” value [1] was > 50000 ng/mL, the “neutralization IC50” value [2] was 0.2 ng/mL and the “neutralization IC50” value [3] was 0.3 ng/mL. The “neutralization IC50” value [4] was 724 ng/mL, the “neutralization IC50” value (HIV Env of isolate CNE53) was 1 ng/mL and the “neutralization IC50” value [5] was 1.2 ng/mL. For the same binder, the “neutralization IC50” value [6] was 0.3 ng/mL, the “neutralization IC50” value [7] was 0.1 ng/mL and the “neutralization IC50” value [8] was 0.7 ng/mL. For the same binder, the “neutralization IC50” value [9] was 0.1 ng/mL, the “neutralization IC50” value (HIV Env of isolate 263-8) was 4.4 ng/mL and the “neutralization IC50” value [10] was 0.4 ng/mL. The “neutralization IC50” value [11] was 0.3 ng/mL, the “neutralization IC50” value [12] was 4 ng/mL and the “neutralization IC50” value [13] was 5.5 ng/mL. For the same binder, the “neutralization IC50” value [14] was 2.2 ng/mL, the “neutralization IC50” value [15] was 3170 ng/mL and the “neutralization IC50” value [16] was 2.1 ng/mL. The “neutralization IC50” value [17] was 1.3 ng/mL, the “neutralization IC50” value [18] was 3.7 ng/mL and the “neutralization IC50” value [19] was 132 ng/mL. For the same binder, the “neutralization IC50” value [20] was 0.3 ng/mL, the “neutralization IC50” value [21] was 0.1 ng/mL and the “neutralization IC50” value [22] was 1.7 ng/mL. For the same binder, the “neutralization IC50” value [23] was 0.9 ng/mL, the “neutralization IC50” value [24] was > 50000 ng/mL and the “neutralization IC50” value [25] was 0.3 ng/mL. The “neutralization IC50” value (HIV Env of isolate CNE21) was 0.1 ng/mL, the “neutralization IC50” value [26] was 0.4 ng/mL and the “neutralization IC50” value [27] was > 50000 ng/mL. For the same binder, the “neutralization IC50” value [28] was > 50000 ng/mL, the “neutralization IC50” value [29] was 1.5 ng/mL and the “neutralization IC50” value [30] was 10700 ng/mL. For the same binder, the “neutralization IC50” value [31] was > 50000 ng/mL, the “neutralization IC50” value [32] was > 50000 ng/mL and the “neutralization IC50” value (HIV Env of isolate CNE20) was 0.3 ng/mL.

B3: ePGT121.15.H6.L1 (antibody, V domains shown)
VH: QMQLQESGPGLVKPGETLSLTCSVSGASISSSYWSWLRETPGKGLEWIGYTHHSGDTNYAPSLKSRVHLGLHPSKNQVSLSLTSVTAADTAVYYCARTLHGRRIYGVVAFNEFFTYFYWEVWGKGTQVTVSS
VL: SDISVAPGETVRISCGGESIGSRAVQWYQHRAGQAPKLIIYNNQDRPPGIPERFSGSPDIDFGTTATLTITNVEAGDEATYYCHIWDSRRPTNWVFGGGTTLTVL
In the case of B3, the “neutralization (Table 6 value)” value [33] is reported as 1.27, the “neutralization (Table 6 value)” value [34] is reported as 0.635 and the “neutralization (Table 6 value)” value [35] is reported as 0.0369. The “neutralization (Table 6 value)” value [36] was 0.0127, the “neutralization (Table 6 value)” value [37] was 0.612 and the “neutralization (Table 6 value)” value [38] was 0.00171. For the same binder, the “neutralization (Table 6 value)” value [39] was 0.635, the “neutralization (Table 6 value)” value [40] was 0.0263 and the “neutralization (Table 6 value)” value [41] was 0.417.
